Molecular target: T1, DR4 expressed in transfected CHO cells (UniProt O00220 24-468, limits assumed)
T1 construct: whole, on cells; also called DR4-transfected CHO cells; DR4-transfected cells
Assay: immunohistochemistry on sections of transfected CHO cells
Method: CHO cells were transfected with vector alone or vector containing the gene for Apo-2 or DR4. The transfected cells were removed from culture plates, pelleted, and washed twice with PBS. The pellets were then resuspended in O.C.T. (Fisher), flash frozen in isopentain and LN_2, and later sectioned using standard protocols. Staining of the sectioned cells was performed using a Vectastain Elite ABC kit. […] The secondary antibody employed was either a biotinylated anti-c-myc 9E10 antibody or anti-Penta His antibody (Qiagen) followed by biotinylated anti-mouse IgG.

binding result: no binding
B1: single chain antibody (scFv) fragment 16E2 (scFv)
scFv: EVQLVQSGGGVERPGGSLRLSCAASGFTFDDYGMSWVRQAPGKGLEWVSGINWNGGSTGYADSVKGRVTISRDNAKNSLYLQMNSLRAEDTAVYYCAKILGAGRGWYFDLWGKGTTVTVSSGGGGSGGGGSGGGGSSELTQDPAVSVALGQTVRITCQGDSLRSYYASWYQQKPGQAPVLVIYGKNNRPSGIPDRFSGSSSGNTASLTITGAQAEDEADYYCNSRDSSGNHVVFGGGTKLTVLGAAAHHHHHHGAAEQKLISEEDLNGAA
notes: Purified by IMAC from E. coli; also called 16E2 antibody; anti-Apo-2 antibody 16E2

Source: US7807153 (Genentech, dated 2010)
